Here are results for 1 substance from publication PMC8803112.

In assay [1] the target is C1r complement protein (human).
For assay [2], the target named is C1s complement protein (human).
Assay [3] has as its target C3 complement protein (human).

In the case of “complement evasion factor (CEF), recombinant Spy0136 (from UniProt Q9A1R6 28-221) (natural protein)”, the Wieslab complement assay, classical pathway activity (C5b-9 formation) of serum pre-incubated with 2 µM rCEF in assay [1] and in assay [2] was less than 10 % activity each time. In assay [3], the C3b deposition on S. pyogenes opsonised with human serum with 0.5 µM rCEF, flow cytometry amounted to 30 % decrease.
